Assay results as given in patent US20210017269A1.

Assays:
[1] = target: human complement component C1q (human) (UniProt P02745); assay: ProteOn XPR36 SPR, antibody immobilised, C1q as analyte, equilibrium model
[2] = target: human Fc gamma receptors (FcγR) (human); assay: ProteOn XPR36 SPR, His-tagged receptors captured, antibody as analyte, 25 °C, equilibrium model

human complement component C1q (human), sequence (P02745 23-245 limits assumed, chain 1 of 3): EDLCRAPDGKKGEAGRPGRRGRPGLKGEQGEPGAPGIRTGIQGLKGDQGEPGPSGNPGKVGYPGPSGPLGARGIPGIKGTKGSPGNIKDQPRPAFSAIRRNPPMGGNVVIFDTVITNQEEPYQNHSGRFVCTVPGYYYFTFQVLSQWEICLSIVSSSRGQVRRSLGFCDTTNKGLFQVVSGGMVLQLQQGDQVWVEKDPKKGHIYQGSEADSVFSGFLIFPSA
human complement component C1q (human), sequence (P02746 28-253 limits assumed, chain 2 of 3, further chain): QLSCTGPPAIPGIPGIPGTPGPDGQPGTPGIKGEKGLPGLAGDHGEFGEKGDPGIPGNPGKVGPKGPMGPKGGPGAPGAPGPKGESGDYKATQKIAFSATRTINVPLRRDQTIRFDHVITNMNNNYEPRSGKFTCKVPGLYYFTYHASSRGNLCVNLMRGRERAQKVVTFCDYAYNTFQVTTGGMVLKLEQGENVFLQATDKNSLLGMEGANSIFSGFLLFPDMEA
human complement component C1q (human), sequence (P02747 29-245 limits assumed, chain 3 of 3, further chain): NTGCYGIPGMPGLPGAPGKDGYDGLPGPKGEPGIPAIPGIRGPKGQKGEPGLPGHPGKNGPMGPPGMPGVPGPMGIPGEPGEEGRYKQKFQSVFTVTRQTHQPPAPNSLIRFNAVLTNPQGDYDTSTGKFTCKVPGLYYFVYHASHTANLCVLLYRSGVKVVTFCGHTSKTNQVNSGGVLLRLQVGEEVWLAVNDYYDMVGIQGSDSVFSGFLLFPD

Kd [1] [nM]	fold lower affinity than the human IgG1 wild type control [2] [fold]	Substance
465		IgG1 wildtype isotype control (antibody)
	1.5	YTE containing control antibody
